Results on two molecules are retold here after publication PMC6331215 (Journal of molecular biology, 2018).

For data set [1], the target named is M. marinum EspG3 (construct for SAXS) (M. marinum E11) (UniProt B2HNX0). The experiment in a line: SAXS.
Data set [2] concerns the molecule itself. The experiment in a line: SAXS.

In data set [1], “M. marinum EspG3 (construct for SAXS) (from UniProt B2HNX0 1-298) (natural protein)” showed a dimeric fraction at 4.0 mg/ml (wing-shaped dimer model, 4L4W) of 1 and a dimeric fraction at 6.0 mg/ml (wing-shaped dimer model, 4L4W) of 1.

B1: M. marinum EspG1 (natural protein)
chain: MTGPLATGRAGTGDDVVGVEVTIDGMLVIADRLHLVDFPVTLGIRPNIPQEDLREIVWDQVARDLTAQGVLDHNGQPHPAVAAMVDTLSRADRTLEGRWWRRDVGGVMVRFVVCRKGERHVIAVRDGDMLVLQLVAPRVGLAGMVTAVLGTAEPANVEPLTGIASELGECTNAAQLTRYGLTPTTARLYTEIVTNPKSWVEIVASERHPGGTTTHTKAAAGVLDSAHGRLVSLPRQVGGELYGSFLPGTEQNLQRALDSLLELLPSGSWLDRADATARG
Usually stoichiometry N stands for the number of molecules, sites or subunits per partner or assembly. Consider B1, for which the “stoichiometry N” value in data set [2] was determined as 2.
